Measured values: patent US5789380A, “Agents for inhibiting accumulation of visceral fat” (Nisshin Flour Milling Co., Ltd., priority 1996, dated 1998)

T1: human pancreatic α-amylase (human, UniProt P04746)
T1 sequence: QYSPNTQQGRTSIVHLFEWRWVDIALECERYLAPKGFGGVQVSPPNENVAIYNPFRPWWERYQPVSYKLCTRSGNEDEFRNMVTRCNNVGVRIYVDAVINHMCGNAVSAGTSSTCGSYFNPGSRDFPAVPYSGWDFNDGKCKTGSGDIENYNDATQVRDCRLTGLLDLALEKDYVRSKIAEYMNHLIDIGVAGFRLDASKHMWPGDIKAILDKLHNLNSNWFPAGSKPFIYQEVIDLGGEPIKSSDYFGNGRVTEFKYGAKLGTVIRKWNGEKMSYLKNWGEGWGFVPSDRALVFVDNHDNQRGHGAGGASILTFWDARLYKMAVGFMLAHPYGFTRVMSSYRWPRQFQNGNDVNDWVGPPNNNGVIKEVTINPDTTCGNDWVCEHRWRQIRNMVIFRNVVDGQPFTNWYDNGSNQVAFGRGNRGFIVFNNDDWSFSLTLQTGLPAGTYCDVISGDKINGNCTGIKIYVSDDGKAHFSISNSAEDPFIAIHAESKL


Assays:
[1] = target: T1, human pancreatic α-amylase; assay: cell-based or functional assay
[2] = test system: human pancreatic α-amylase; assay: Determination of inhibitory activity against human pancreatic α-amylase; assay type: biochemical; conditions: 1 U = amount inhibiting 50% of amylase activity, pH 6.9, 37° C., soluble starch
Method: The numerical values as given herein for the amylase inhibitory activity are determined by the following method, which are represented in terms of the inhibitory activity value against human pancreatic α-amylase.
Determination of inhibitory activity against human pancreatic α-amylase:
An aqueous solution of a sample and human pancreatic α-amylase were added to 20 mM piperazine-N,N'-bis(2-ethanesulfonic acid) buffer (pH 6.9) containing 50 mM NaCl, 5 mM CaCl2 and 0.02% egg white albumin. The mixture was allowed to stand at 37° C. for 30 min. and then mixed with 0.5 ml of a 1.5% soluble starch solution (pH 6.9). The resulting solution was allowed to react while maintaining at 37° C. for 10 min. and the reaction was then ceased by adding 2.5 ml of a solution (0.08M HCl and 0.4M acetic acid). To 0.2 ml of the reaction solution was added 2.5 ml of an iodine solution (0.05% KI and 0.005% iodine), and the mixture was measured for absorbance at 660 nm. The amylase was used in an amount sufficient to reduce 80% absorbance when no sample solution was contained and the amount of the amylase inhibitor sufficient to inhibit 50% amylase activity at this time was expressed as 1 amylase inhibitory unit (U).

Molecule | Amylase inhibitory activity (U/mg) [1] [U/mg] | Amylase inhibitory activity [2] | Amylase inhibitory activity ([2]; listed as 0.58 AI)
0.26 AIb (other) SGPWMCYPGYAFKVPALPGCRPVLKLQCNGSQVPEAVLRDCCQQLADISEWCRCGALYSMLDSMYKEHGVQEGQAGTGAFPSCRREVVKLTAASITAVCKLPIVIDASGDGAYVCKGVAAYP | 20500 | – | –
0.26 AIa (other) SGPWMCYPGYAFKVPALPGCRPVLKLQCNGSQVPEAVLRDCCQQLADISEWCRCGALYSMLDSMYKEHGVQEGQAGTGAFPSCRREVVKLTAASITAVCKLPIVIDASGDGAYVCKGVAAYPDA | 26100 | – | –
0.19 AI (other) SGPWMCYPGQAFQVPALPACRPLLRLQCNGSQVPEAVLRDCCQQLAHISEWCRCGALYSMLDSMYKEHGAQEGQAGTGAFPRCRREVVKLTAASITAVCRLPIVVDASGDGAYVCKDVAAYPDA | 20300 | – | –

Now from value to molecule:

Amylase inhibitory activity (U/mg) [1] [U/mg] | Amylase inhibitory activity [2] | Amylase inhibitory activity ([2]; listed as 0.58 AI) | Molecule
840 | – | – | 0.28 AI (other) SGPWSWCNPATGYKVSALTGCRAMVKLQCVGSQVPEAVLRDCCQQLADINNEWCRCGDLSSMLRAVTQELGVREGKEVLPGCRKEVMKLTAASVPEVCKVPIPNPSGDRAGVCYGDWCAYPDV
3940 | – | – | 0.53 AI (other) SGPWMCYPGQAFQVPALPGCRPLLKLQCNGSQVPEAVLRDCCQQLADISEWPRCGALYSMLDSMYKEHGVSEGQAGTGAFPSCRREVVKLTAASITAVCRLPIVVDASGDGAYVCKDVAAYPDA
– | 3,940 U/mg | less amylase inhibitory activity | 0.53 AI: known wheat amylase inhibitor protein composed of two subunits, each identified as SEQ ID NO:4 (protein) chain 1: SGPWMCYPGQAFQVPALPGCRPLLKLQCNGSQVPEAVLRDCCQQLADISEWPRCGALYSMLDSMYKEHGVSEGQAGTGAFPSCRREVVKLTAASITAVCRLPIVVDASGDGAYVCKDVAAYPDA chain 2: SGPWMCYPGQAFQVPALPGCRPLLKLQCNGSQVPEAVLRDCCQQLADISEWPRCGALYSMLDSMYKEHGVSEGQAGTGAFPSCRREVVKLTAASITAVCRLPIVVDASGDGAYVCKDVAAYPDA
